# Measured values published in patent US20210347852A1 (Regeneron, published 2021).
# B1: Human VEGF121 (R&D SYSTEMS Cat #4644-VS) (ligand, UniProt P15692-9 27-147, looked up)
# chain: APMAEGGGQNHHEVVKFMDVYQRSYCHPIETLVDIFQEYPDEIEYIFKPSCVPLMRCGGCCNDEGLECVPTEESNITMQIMRIKPHQGQHIGEMSFLQHNKCECRPKKDRARQEKCDKPRR
# Legend:
# [1] = target: B1; experiment: cell-based or functional assay
# [2] = target: B1; experiment: cell-based or functional assay; remark: listed apart in the source
# Human VEGF165 (REGN110) [3] = target: T1, Human VEGF165 (REGN110) (human, UniProt P15692-4 27-191); experiment: SPR (Biacore 3000), 25C, trap captured by REGN18, hVEGF165 injected
# T1 construct: also called hVEGF165; REGN110-L9
# Protocol: Equilibrium dissociation constants (KD values) for human VEGF₁₆₅ binding to various purified VEGF mini-trap constructs were determined using a real-time surface plasmon resonance biosensor using a Biacore 3000 instrument. All binding studies were performed in 10 mM HEPES, 150 mM NaCl, 3 mM EDTA, and 0.05% v/v Surfactant Tween-20; pH 7.4 (HBS-ET) running buffer at 25° C. The Biacore sensor surface was first derivatized by amine coupling with a monoclonal mouse anti-VEGFR1 antibody (REGN18) to capture VEGF mini-trap constructs. Binding studies were performed on the following human VEGF reagents: human VEGF₁₆₅. […] Dissociation of bound VEGF₁₆₅ reagent from VEGF mini-trap constructs was monitored for 60 minutes in HBS-ET running buffer. Kinetic association (ka) and dissociation (kd) rate constants were determined by fitting the real-time sensorgrams to a 1:1 binding model using Scrubber 2.0c curve fitting software. Binding dissociation equilibrium constants (KD) and dissociative half-lives (t1/2) were calculated from the kinetic rate constants as: […]
# [4] = target: T2, VEGFR1 chimeric receptors Flt1(1-7)-IL18Rα / Flt1(1-7)-IL18Rβ on HEK293/D9 reporter cells (UniProt P17948 27-758; Q13478 351-541; P17948 27-758; O95256 378-599, limits assumed); experiment: cell-based or functional assay
# T2 sequence (P17948 other isoform, or with tags, fused parts or gaps mutant limits assumed, chain 1 of 2): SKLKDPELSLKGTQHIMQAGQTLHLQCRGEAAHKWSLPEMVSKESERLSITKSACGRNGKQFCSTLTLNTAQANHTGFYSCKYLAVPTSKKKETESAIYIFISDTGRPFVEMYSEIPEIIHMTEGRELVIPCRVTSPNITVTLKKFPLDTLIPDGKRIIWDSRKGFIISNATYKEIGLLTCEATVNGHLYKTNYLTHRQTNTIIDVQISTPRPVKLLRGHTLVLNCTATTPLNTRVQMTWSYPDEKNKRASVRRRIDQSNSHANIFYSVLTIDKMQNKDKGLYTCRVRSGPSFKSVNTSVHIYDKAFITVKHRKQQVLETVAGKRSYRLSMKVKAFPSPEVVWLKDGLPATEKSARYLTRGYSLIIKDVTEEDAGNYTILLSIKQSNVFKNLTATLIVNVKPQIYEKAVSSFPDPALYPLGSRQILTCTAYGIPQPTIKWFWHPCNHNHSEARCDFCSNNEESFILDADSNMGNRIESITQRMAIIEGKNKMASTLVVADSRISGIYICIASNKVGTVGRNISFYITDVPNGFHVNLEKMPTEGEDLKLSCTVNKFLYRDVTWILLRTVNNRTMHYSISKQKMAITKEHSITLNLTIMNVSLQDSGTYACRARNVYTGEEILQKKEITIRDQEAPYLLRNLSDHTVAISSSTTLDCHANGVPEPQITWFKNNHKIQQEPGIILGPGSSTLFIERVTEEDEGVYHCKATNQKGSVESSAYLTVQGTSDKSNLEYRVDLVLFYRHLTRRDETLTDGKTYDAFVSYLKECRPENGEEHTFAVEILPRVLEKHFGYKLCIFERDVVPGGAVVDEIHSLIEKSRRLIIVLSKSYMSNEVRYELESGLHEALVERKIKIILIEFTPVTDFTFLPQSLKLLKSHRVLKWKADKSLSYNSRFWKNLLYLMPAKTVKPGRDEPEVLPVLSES
# T2 sequence (P17948 other isoform, or with tags, fused parts or gaps mutant limits assumed, chain 2 of 2): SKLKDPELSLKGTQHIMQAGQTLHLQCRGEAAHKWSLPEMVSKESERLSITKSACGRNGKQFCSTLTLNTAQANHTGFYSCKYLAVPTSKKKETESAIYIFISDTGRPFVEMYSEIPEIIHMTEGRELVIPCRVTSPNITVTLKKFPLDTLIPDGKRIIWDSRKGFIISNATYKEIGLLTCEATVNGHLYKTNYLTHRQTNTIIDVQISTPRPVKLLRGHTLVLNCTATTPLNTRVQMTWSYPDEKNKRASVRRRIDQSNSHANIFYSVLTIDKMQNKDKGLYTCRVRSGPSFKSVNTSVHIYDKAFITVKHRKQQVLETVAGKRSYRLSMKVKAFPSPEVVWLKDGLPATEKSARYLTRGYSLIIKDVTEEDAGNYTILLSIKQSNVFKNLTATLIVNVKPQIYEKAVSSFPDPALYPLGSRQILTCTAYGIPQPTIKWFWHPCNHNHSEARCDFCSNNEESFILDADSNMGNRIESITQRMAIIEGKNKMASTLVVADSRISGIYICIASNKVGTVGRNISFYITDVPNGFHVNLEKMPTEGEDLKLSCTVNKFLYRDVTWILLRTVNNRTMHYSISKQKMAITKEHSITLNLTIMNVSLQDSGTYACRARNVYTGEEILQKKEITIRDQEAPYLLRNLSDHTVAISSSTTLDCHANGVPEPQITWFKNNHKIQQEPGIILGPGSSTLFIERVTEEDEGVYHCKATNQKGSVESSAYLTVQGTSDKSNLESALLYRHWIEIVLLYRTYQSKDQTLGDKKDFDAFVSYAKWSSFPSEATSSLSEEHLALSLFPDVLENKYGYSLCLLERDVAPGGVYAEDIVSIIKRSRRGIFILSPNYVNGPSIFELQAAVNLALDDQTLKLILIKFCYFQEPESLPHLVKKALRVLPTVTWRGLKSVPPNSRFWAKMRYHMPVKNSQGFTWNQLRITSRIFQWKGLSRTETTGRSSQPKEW
# [5] = target: T2, VEGFR1 chimeric receptors …; experiment: cell-based or functional assay; remark: listed apart in the source
# Human VEGF165 (REGN110) [6] = target: T1, Human VEGF165 (REGN110); experiment: cell-based or functional assay
# [7] = target: B1; experiment: cell-based or functional assay; remark: listed apart in the source
"IC50, Inhibition of 20 pM VEGF121, VEGFR1 assay (luciferase) [1]","IC50 (read off the curve); NFkB-luciferase reporter (RLU), 293/D9/VEGFR1 cells, VEGF121 constant 40 pM [C] [2]",2.5 nM hVEGF165 Bound (RU) (Human VEGF165 (REGN110) [3]),Kd (Human VEGF165 (REGN110) [3]),koff (Human VEGF165 (REGN110) [3]),kon (Human VEGF165 (REGN110) [3]),t½ (Human VEGF165 (REGN110) [3]),EC50 of activation of HEK293/D9/Flt-IL18Rα/Flt-IL18Rβ (VEGFR1) luciferase reporter cells [4],"EC50 (read off the curve); NFkB-luciferase reporter (RLU), 293/D9/VEGFR1 cells, VEGF121 titrated alone [A] [5]","IC50, Inhibition of 20 pM VEGF165, VEGFR1 assay (luciferase) (Human VEGF165 (REGN110) [6])","IC50 (read off the curve); NFkB-luciferase reporter (RLU), 293/D9/VEGFR1 cells, VEGF121 constant 40 pM [A] [7]",Binder
1.43e-11 M,~1e-11 M,6.6 RU,0.0026 nM,2.77e-05 s⁻¹,1.06e+07 M⁻¹ s⁻¹,6.95 h,,,,,"REGN10102, VEGF trap hIgG2 Fc w/2Cys (Fc fusion) SDTGRPFVEMYSEIPEIIHMTEGRELVIPCRVTSPNITVTLKKFPLDTLIPDGKRIIWDSRKGFIISNATYKEIGLLTCEATVNGHLYKTNYLTHRQTNTIIDVVLSPSHGIELSVGEKLVLNCTARTELNVGIDFNWEYPSSKHQHKKLVNRDLKTQSGSEMKKFLSTLTIDGVTRSDQGLYTCAASSGLMTKKNSTFVRVHEKVECPPCPAPPVAGPSVFLFPPKPKDTLMISRTPEVTCVVVDVSHEDPEVQFNWYVDGVEVHNAKTKPREEQFNSTFRVVSVLTVVHQDWLNGKEYKCKVSNKGLPAPIEKTISKTKGQPREPQVYTLPPSREEMTKNQVSLTCLVKGFYPSDIAVEWESNGQPENNYKTTPPMLDSDGSFFLYSKLTVDKSRWQQGNVFSCSVMHEALHNHYTQKSLSLSPGK"
,,,,,,,~0.03 nM,~0.1 nM,,,B1
2.09e-11 M,,9.37 RU,0.0019 nM,1.95e-05 s⁻¹,1.01e+07 M⁻¹ s⁻¹,9.85 h,,,3.36e-11 M,~2e-11 M,"REGN7483, VEGF mini-trap hIgG1 Fc (other, Enzymatically cleaved from aflibercept; also called REGN7483F; VEGF mini-trap derived from REGN3) SDTGRPFVEMYSEIPEIIHMTEGRELVIPCRVTSPNITVTLKKFPLDTLIPDGKRIIWDSRKGFIISNATYKEIGLLTCEATVNGHLYKTNYLTHRQTNTIIDVVLSPSHGIELSVGEKLVLNCTARTELNVGIDFNWEYPSSKHQHKKLVNRDLKTQSGSEMKKFLSTLTIDGVTRSDQGLYTCAASSGLMTKKNSTFVRVHEKDKTHTCPPCPAPELLG"
